Data reported in the supplement of paper PMC5998384.

Key:
HeLa Kyoto [1] = assay: thermal stability score vs G1/S (z-score of summed log2 fold changes over temperatures); higher = more thermally stable than in G1/S
HeLa Kyoto [2] = assay: solubility change mitosis vs G1/S (difference of NP-40 vs SDS log2 ratios) (log2 ratio difference); higher = more soluble in mitosis
HeLa Kyoto [3] = assay: melting temperature (median over replicates), in situ; higher = more thermally stable
HeLa Kyoto [4] = assay: solubility in G1/S (NP-40 vs SDS abundance) (log2 ratio); higher = more soluble; settings: cell cycle stage: G1/S
[5] = cell cycle stage: early G1 (4.5 h after nocodazole release)
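Wherever melting temperature (median over replicates), in situ is given: HeLa Kyoto cells synchronized by double thymidine or nocodazole block, proteins quantified by TMT10plex mass spectrometry, three independent biological replicates.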
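Wherever solubility change mitosis vs G1/S (difference of NP-40 vs SDS log2 ratios) is given: synchronized HeLa Kyoto cells (double thymidine block for G1/S, nocodazole release for mitosis), protein amounts in NP-40 versus SDS lysates quantified by mass spectrometry, three biological replicates.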
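Wherever solubility in G1/S (NP-40 vs SDS abundance) is given: HeLa Kyoto cells arrested at G1/S by double thymidine block, proteins quantified by TMT10plex mass spectrometry in mild NP-40 versus SDS extracts, three biological replicates.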
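Wherever thermal stability score vs G1/S (z-score of summed log2 fold changes over temperatures) is given: synchronized HeLa Kyoto cells, proteins quantified by TMT10plex mass spectrometry, three biological replicates, mitosis taken 0.5 h after nocodazole release, G1/S directly after double thymidine block.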

Sequence	thermal stability score (HeLa Kyoto [1]; [5])	thermal stability score (HeLa Kyoto [1]; cell cycle stage: mitosis)	solubility change mitosis (log2) (HeLa Kyoto [2])	melting temperature (HeLa Kyoto [3]; cell cycle stage: G1/S) [°C]	melting temperature (HeLa Kyoto [3]; cell cycle stage: mitosis) [°C]	solubility in G1/S (log2) (HeLa Kyoto [4])
MPKLQGFEFWSRTLRGARHVVAPMVDQSELAWRLLSRRHGAQLCYTPMLHAQVFVRDANYRKENLYCEVCPEDRPLIVQFCANDPEVFVQAALLAQDYCDAIDLNLGCPQMIAKRGHYGAFLQDEWDLLQRMILLAHEKLSVPVTCKIRVFPEIDKTVRYAQMLEKAGCQLLTVHGRTKEQKGPLSGAASWEHIKAVRKAVAIPVFANGNIQCLQDVERCLRDTGVQGVMSAEGNLHNPALFEGRSPAVWELAEEYLDIVREHPCPLSYVRAHLFKLWHHTLQVHQELREELAKVKTLEGIAAVSQELKLRCQEEISRQEGAKPTGDLPFHWICQPYIRPGPREGSKEKAGARSKRALEEEEGGTEVLSKNKQKKQLRNPHKTFDPSLKPKYAKCDQCGNPKGNRCVFSLCRGCCKKRASKETADCPGHGLLFKTKLEKSLAWKEAQPELQEPQPAAPGTPGGFSEVMGSALA [DUS1L]	0.994	1.71	-0.169	47.3	48.9	0.086
MPLAQLKEPWPLMELVPLDPENGQTSGEEAGLQPSKDEGVLKEISITHHVKAGSEKADPSHFELLKVLGQGSFGKVFLVRKVTRPDSGHLYAMKVLKKATLKVRDRVRTKMERDILADVNHPFVVKLHYAFQTEGKLYLILDFLRGGDLFTRLSKEVMFTEEDVKFYLAELALGLDHLHSLGIIYRDLKPENILLDEEGHIKLTDFGLSKEAIDHEKKAYSFCGTVEYMAPEVVNRQGHSHSADWWSYGVLMFEMLTGSLPFQGKDRKETMTLILKAKLGMPQFLSTEAQSLLRALFKRNPANRLGSGPDGAEEIKRHVFYSTIDWNKLYRREIKPPFKPAVAQPDDTFYFDTEFTSRTPKDSPGIPPSAGAHQLFRGFSFVATGLMEDDGKPRAPQAPLHSVVQQLHGKNLVFSDGYVVKETIGVGSYSECKRCVHKATNMEYAVKVIDKSKRDPSEEIEILLRYGQHPNIITLKDVYDDGKHVYLVTELMRGGELLDKILRQKFFSEREASFVLHTIGKTVEYLHSQGVVHRDLKPSNILYVDESGNPECLRICDFGFAKQLRAENGLLMTPCYTANFVAPEVLKRQGYDEGCDIWSLGILLYTMLAGYTPFANGPSDTPEEILTRIGSGKFTLSGGNWNTVSETAKDLVSKMLHVDPHQRLTAKQVLQHPWVTQKDKLPQSQLSHQDLQLVKGAMAATYSALNSSKPTPQLKPIESSILAQRRVRKLPSTTL [RPS6KA1]	0.39	1.42	-0.118	49.6	50.2	0.0398
MPLGLGRRKKAPPLVENEEAEPGRGGLGVGEPGPLGGGGSGGPQMGLPPPPPALRPRLVFHTQLAHGSPTGRIEGFTNVKELYGKIAEAFRLPTAEVMFCTLNTHKVDMDKLLGGQIGLEDFIFAHVKGQRKEVEVFKSEDALGLTITDNGAGYAFIKRIKEGSVIDHIHLISVGDMIEAINGQSLLGCRHYEVARLLKELPRGRTFTLKLTEPRKAFDMISQRSAGGRPGSGPQLGTGRGTLRLRSRGPATVEDLPSAFEEKAIEKVDDLLESYMGIRDTELAATMVELGKDKRNPDELAEALDERLGDFAFPDEFVFDVWGAIGDAKVGRY [GIPC1]	-0.363	1.49	-0.156	49.5	48.7	0.314
MPLHQLGDKPLTFPSPNSAMENGLDHTPPSRRASPGTPLSPGSLRSAAHSPLDTSKQPLCQLWAEKHGARGTHEVRYVSAGQSVACGWWAFAPPCLQVLNTPKGILFFLCAAAFLQGMTVNGFINTVITSLERRYDLHSYQSGLIASSYDIAACLCLTFVSYFGGSGHKPRWLGWGVLLMGTGSLVFALPHFTAGRYEVELDAGVRTCPANPGAVCADSTSGLSRYQLVFMLGQFLHGVGATPLYTLGVTYLDENVKSSCSPVYIAIFYTAAILGPAAGYLIGGALLNIYTEMGRRTELTTESPLWVGAWWVGFLGSGAAAFFTAVPILGYPRQLPGSQRYAVMRAAEMHQLKDSSRGEASNPDFGKTIRDLPLSIWLLLKNPTFILLCLAGATEATLITGMSTFSPKFLESQFSLSASEAATLFGYLVVPAGGGGTFLGGFFVNKLRLRGSAVIKFCLFCTVVSLLGILVFSLHCPSVPMAGVTASYGGSLLPEGHLNLTAPCNAACSCQPEHYSPVCGSDGLMYFSLCHAGCPAATETNVDGQKVYRDCSCIPQNLSSGFGHATAGKCTSTCQRKPLLLVFIFVVIFFTFLSSIPALTATLRCVRDPQRSFALGIQWIVVRILGGIPGPIAFGWVIDKACLLWQDQCGQQGSCLVYQNSAMSRYILIMGLLYKVLGVLFFAIACFLYKPLSESSDGLETCLPSQSSAPDSATDSQLQSSV [SLCO4A1]	-0.978	-0.221	-0.143	55.2	56.9	0.576
MPLKWKTSSPAIWKFPVPVLKTSRSTPLSPAYISLVEEEDQHMKLSLGGSEMGLSSHLQSSKAGPTRIFTSNTHSSVVLQGFDQLRLEGLLCDVTLMPGDTDDAFPVHRVMMASASDYFKAMFTGGMKEQDLMCIKLHGVSKVGLRKIIDFIYTAKLSLNMDNLQDTLEAASFLQILPVLDFCKVFLISGVTLDNCVEVGRIANTYNLTEVDKYVNSFVLKNFPALLSTGEFLKLPFERLAFVLSSNSLKHCTELELFKATCRWLRLEEPRMDFAAKLMKNIRFPLMTPQELINYVQTVDFMRTDNTCVNLLLEASNYQMMPYMQPVMQSDRTAIRSDTTHLVTLGGVLRQQLVVSKELRMYDEKAHEWKSLAPMDAPRYQHGIAVIGNFLYVVGGQSNYDTKGKTAVDTVFRFDPRYNKWMQVASLNEKRTFFHLSALKGYLYAVGGRNAAGELPTVECYNPRTNEWTYVAKMSEPHYGHAGTVYGGVMYISGGITHDTFQKELMCFDPDTDKWIQKAPMTTVRGLHCMCTVGERLYVIGGNHFRGTSDYDDVLSCEYYSPILDQWTPIAAMLRGQSDVGVAVFENKIYVVGGYSWNNRCMVEIVQKYDPDKDEWHKVFDLPESLGGIRACTLTVFPPEETTPSPSRESPLSAP [KLHL13]	-0.01	0.108	-0.128	52.2	50.4	-0.13
MPLLTQQIQDEDDQYSLVASLDNVRNLSTILKAIHFREHATCFATKNGIKVTVENAKCVQANAFIQAGIFQEFKVQEESVTFRINLTVLLDCLSIFGSSPMPGTLTALRMCYQGYGYPLMLFLEEGGVVTVCKINTQEPEETLDFDFCSTNVINKIILQSEGLREAFSELDMTSEVLQITMSPDKPYFRLSTFGNAGSSHLDYPKDSDLMEAFHCNQTQVNRYKISLLKPSTKALVLSCKVSIRTDNRGFLSLQYMIRNEDGQICFVEYYCCPDEEVPESES [RAD1]	2.13	0.628	-0.225	51.4	51.2	-0.0871
MPLRLDIKRKLTARSDRVKSVDLHPTEPWMLASLYNGSVCVWNHETQTLVKTFEVCDLPVRAAKFVARKNWVVTGADDMQIRVFNYNTLERVHMFEAHSDYIRCIAVHPTQPFILTSSDDMLIKLWDWDKKWSCSQVFEGHTHYVMQIVINPKDNNQFASASLDRTIKVWQLGSSSPNFTLEGHEKGVNCIDYYSGGDKPYLISGADDRLVKIWDYQNKTCVQTLEGHAQNVSCASFHPELPIIITGSEDGTVRIWHSSTYRLESTLNYGMERVWCVASLRGSNNVALGYDEGSIIVKLGREEPAMSMDANGKIIWAKHSEVQQANLKAMGDAEIKDGERLPLAVKDMGSCEIYPQTIQHNPNGRFVVVCGDGEYIIYTAMALRNKSFGSAQEFAWAHDSSEYAIRESNSIVKIFKNFKEKKSFKPDFGAESIYGGFLLGVRSVNGLAFYDWDNTELIRRIEIQPKHIFWSDSGELVCIATEESFFILKYLSEKVLAAQETHEGVTEDGIEDAFEVLGEIQEIVKTGLWVGDCFIYTSSVNRLNYYVGGEIVTIAHLDRTMYLLGYIPKDNRLYLGDKELNIISYSLLVSVLEYQTAVMRRDFSMADKVLPTIPKEQRTRVAHFLEKQGFKQQALTVSTDPEHRFELALQLGELKIAYQLAVEAESEQKWKQLAELAISKCQFGLAQECLHHAQDYGGLLLLATASGNANMVNKLAEGAERDGKNNVAFMSYFLQGKVDACLELLIRTGRLPEAAFLARTYLPSQVSRVVKLWRENLSKVNQKAAESLADPTEYENLFPGLKEAFVVEEWVKETHADLWPAKQYPLVTPNEERNVMEEGKDFQPSRSTAQQELDGKPASPTPVIVASHTANKEEKSLLELEVDLDNLELEDIDTTDINLDEDILDD [COPB2]	-0.168	-0.888	-0.0942	51.7	51.3	-0.298
